According to patent publication US10502741B2, “Means and methods for detecting activated MALT1” (Helmholtz Zentrum München Deutsches Forschungszentrum für …, priority 2014, dated 2019):

Experiments:
MALT1 = target: T1, MALT1 (Homo sapiens, UniProt Q9UDY8); test: MALT1 in vitro cleavage assay using fluorescent substrate; assay type: biochemical
T1 construct: GST
T1 sequence (Q9UDY8 1-824): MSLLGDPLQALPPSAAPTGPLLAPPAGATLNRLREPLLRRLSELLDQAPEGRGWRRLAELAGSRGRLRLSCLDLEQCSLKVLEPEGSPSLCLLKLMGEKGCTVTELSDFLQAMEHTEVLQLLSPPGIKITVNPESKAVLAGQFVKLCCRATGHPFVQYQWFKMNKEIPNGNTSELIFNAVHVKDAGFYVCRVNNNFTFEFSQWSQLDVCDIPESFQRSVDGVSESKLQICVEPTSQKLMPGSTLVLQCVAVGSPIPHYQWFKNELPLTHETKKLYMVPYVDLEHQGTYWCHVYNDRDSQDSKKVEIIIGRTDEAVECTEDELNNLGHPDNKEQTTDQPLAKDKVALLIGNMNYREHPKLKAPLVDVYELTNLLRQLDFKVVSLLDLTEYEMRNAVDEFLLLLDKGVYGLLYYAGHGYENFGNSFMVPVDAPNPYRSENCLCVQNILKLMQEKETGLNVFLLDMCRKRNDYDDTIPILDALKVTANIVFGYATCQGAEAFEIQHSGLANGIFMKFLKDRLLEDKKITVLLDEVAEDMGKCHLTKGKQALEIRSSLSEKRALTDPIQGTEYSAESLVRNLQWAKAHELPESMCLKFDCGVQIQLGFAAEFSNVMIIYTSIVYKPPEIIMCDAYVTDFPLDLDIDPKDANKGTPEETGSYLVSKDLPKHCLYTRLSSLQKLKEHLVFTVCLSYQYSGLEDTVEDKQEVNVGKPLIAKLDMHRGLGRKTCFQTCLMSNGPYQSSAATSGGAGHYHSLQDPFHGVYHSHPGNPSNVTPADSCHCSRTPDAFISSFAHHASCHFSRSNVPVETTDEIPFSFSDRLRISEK
Protocol: C) Impact of indicated compounds on MALT1, Caspase8 and cathepsin B was tested in in vitro cleavage assays using fluorescent substrates. Results and SD from three independent experiments are shown.
Preferably, MALT1 activity is determined in a MALT1 cleavage assay. […] The assay may be performed in cleavage buffer comprising for example 50 mM MES, 1 M sodium citrate pH 7, 150 mM NaCl, 10% sucrose, 0.1% chaps, 10 mM DTT. Catalytically active MALT1 cleaves the substrate and an increase of AMC fluorescence can be measured.

active MALT1 [1] = target: T2, active MALT1 (Homo sapiens, UniProt Q9UDY8); test: Probe 7-pulldown with streptavidin beads and western blot; assay type: cell-based; conditions: Jurkat T cells pretreated with 10 μM inhibitors, 0.1 μM probe 7
T2 construct: endogenous in cells; host or cells: Jurkat T cells, primary human PBMCs and T cells, DLBCL cell lines (HBL1, TMD8, OCI-Ly3, OCI-Ly10, U2932, RIVA, BJAB, Su-DHL-4, Su-DHL-6)
T2 sequence (Q9UDY8 1-824): T1 sequence (Q9UDY8 1-824)
Protocol: (§1) Jurkat T cells were cultured in standard RPMI medium containing 10% FCS, 100 U/ml Penicillin/Streptomycin and 2 mM Glutamin. DNA transfection of 6 μg DNA in 8×10^6 Jurkat T cells was performed by electroporation in a GenePulser Xcell (BioRad) with a 220 Volt pulse. For siRNA experiments, Jurkat T cells were transfected with 100 nM siRNA and Atufect transfection reagent (Silence Therapeutics, Berlin). Jurkat T cells were stimulated either with 200 ng/ml PMA (phorbol 12-myristate 13-acetate) and 300 ng/ml Ionomycin (both Calbiochem) or CD3/CD28 antibody co-ligation (human CD3: 1 μg/ml; human CD28: 4 μg/ml; mouse IgG1: 2 μg/ml; mouse IgG2a: 2 μg/ml; BD Biosciences). DLBCL cell lines (HBL1, TMD8, OCI-Ly3, U2932, RIVA, BJAB, Su-DHL-4 and Su-DHL-6) were cultured in standard RPMI medium containing 20% FCS, 100 U/ml Penicillin/Streptomycin and 2 mM Glutamin. OCI-Ly10 cell line was cultured in IMDM containing 20% human serum, 100 U/ml Penicillin/Streptomycin, 2 U/ml heparine, 50 μM β-mercaptoethanol. Inhibitors 10 μM (z-VRPR-FMK, Mepazine, Thioridazine, CA-074Me) were added to the cells in media for 1 h, prior to stimulation and labeling with diagnostic MALT1 inhibitor.
Untreated DLBCL (1-2×10^7) or Jurkat T cells (stimulated with PMA/Ionomycin or CD3/28 or left untreated; 1-2×10^7), were lysed in 500 μl co-IP buffer without protease inhibitors, centrifuged, incubated with probe 7 (concentration as depicted) for 1 h at RT then incubated with streptavidin beads for 2 h at 4° C. Precipitate was washed, analysed by SDS-PAGE and western blot.

active MALT1 [2] = target: T2, active MALT1; test: Labeling with diagnostic inhibitor in cell extracts (gel-based, fluorescence scan): active MALT1 band
Protocol: as §1
Jurkat T cells (1-2×10^7), primary human PBMCs or primary human T cells (0.25 or 1×10^7) were lysed in 150 μl co-IP buffer without protease inhibitors. DLBCL (3×10^7) were lysed in 250 μl buffer. After centrifugation (14000 rpm, 10 min, 4° C.), 100 μl extract (DLBCL: 200 μl) was stained with probe 5 or probe 6 (3 μM end) for 50 min at 29° C., mixed with 4× loading dye and boiled.

In the case of “z-VRPR-FMK (Z N-terminal cap, FMK warhead)”, the “inhibition of MALT1 protease activity in vitro” value (MALT1) is reported as “inhibit MALT1”, the “effect of inhibitor on formation of MALT1-probe 7 complexes” value (active MALT1 [1]) is reported as “blocked” and the “effect of inhibitor on probe 6 labeling of active MALT1” value (active MALT1 [2]; HBL1 cells, inhibitors 10 μM each) is reported as “sensitivity”. The “effect of inhibitor pretreatment on probe 5 labeling of active MALT1” value (active MALT1 [2]; Jurkat T cells, 10 μM inhibitor before stimulation, probe 5) was “prevents binding of diagnostic MALT1-inhibitor”.
